What was measured:
Conditions in all cases: both partners purified
[1] = target: T1, Mnl1 mCTD–FLAG (S. cerevisiae, UniProt P38888 21-796, L655N | F770Y | M772K); assay: cross-linking; competition: RBΔS, RBun or RBsc incubated with Mnl1–Pdi1 complex at the indicated molar ratios (tenfold excess in Fig. 6) in 25 mM HEPES pH 7.4, 150 mM NaCl, 0.1% Nonidet P-40, 2 mM CaCl2, 30 °C 30 min; then DPS 30 °C 30 min, N-ethylmaleimide; SDS-PAGE, Coomassie blue
T1 construct: Mnl1 (Htm1) of S. cerevisiae with three hydrophobic residues of the CTD groove changed to hydrophilic ones; source: S. cerevisiae, overexpressed together with Pdi1, purified as a complex (anti-FLAG M2 resin, Superdex 200); not shown: FLAG, C-terminal, kept
T1 sequence (looked up): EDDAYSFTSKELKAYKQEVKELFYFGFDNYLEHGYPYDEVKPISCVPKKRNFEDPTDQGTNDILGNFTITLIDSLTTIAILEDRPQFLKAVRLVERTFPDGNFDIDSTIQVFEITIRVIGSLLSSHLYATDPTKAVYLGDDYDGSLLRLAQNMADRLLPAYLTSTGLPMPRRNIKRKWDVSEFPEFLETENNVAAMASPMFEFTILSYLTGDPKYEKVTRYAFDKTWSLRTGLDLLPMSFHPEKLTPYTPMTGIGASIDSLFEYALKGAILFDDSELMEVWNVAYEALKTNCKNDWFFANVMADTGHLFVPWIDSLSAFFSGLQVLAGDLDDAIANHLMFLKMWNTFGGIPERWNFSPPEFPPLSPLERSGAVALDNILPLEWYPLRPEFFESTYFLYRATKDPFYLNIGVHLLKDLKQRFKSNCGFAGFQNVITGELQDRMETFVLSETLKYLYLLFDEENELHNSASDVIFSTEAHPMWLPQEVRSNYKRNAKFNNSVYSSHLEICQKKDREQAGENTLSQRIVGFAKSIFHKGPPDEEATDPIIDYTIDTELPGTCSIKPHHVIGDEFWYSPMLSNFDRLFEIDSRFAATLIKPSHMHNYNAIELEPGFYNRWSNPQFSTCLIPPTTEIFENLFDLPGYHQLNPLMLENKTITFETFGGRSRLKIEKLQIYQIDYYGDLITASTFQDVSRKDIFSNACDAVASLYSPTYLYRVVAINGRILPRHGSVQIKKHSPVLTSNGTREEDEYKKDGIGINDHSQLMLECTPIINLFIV

[2] = target: T2, Mnl1 (C644S)–FLAG (S. cerevisiae, UniProt P38888 21-796, C644S); assay: cross-linking; purified complexes of Pdi1 with wild-type or mutant Mnl1 incubated with increasing concentrations of DPS (2,2′-dipyridyldisulfide) to induce disulfides; non-reducing SDS-PAGE, Coomassie blue
T2 construct: Mnl1 (Htm1) of S. cerevisiae with a substituted loop cysteine; source: S. cerevisiae, overexpressed together with Pdi1, purified as a complex (anti-FLAG M2 resin, Superdex 200); not shown: FLAG, C-terminal, kept
T2 sequence (looked up): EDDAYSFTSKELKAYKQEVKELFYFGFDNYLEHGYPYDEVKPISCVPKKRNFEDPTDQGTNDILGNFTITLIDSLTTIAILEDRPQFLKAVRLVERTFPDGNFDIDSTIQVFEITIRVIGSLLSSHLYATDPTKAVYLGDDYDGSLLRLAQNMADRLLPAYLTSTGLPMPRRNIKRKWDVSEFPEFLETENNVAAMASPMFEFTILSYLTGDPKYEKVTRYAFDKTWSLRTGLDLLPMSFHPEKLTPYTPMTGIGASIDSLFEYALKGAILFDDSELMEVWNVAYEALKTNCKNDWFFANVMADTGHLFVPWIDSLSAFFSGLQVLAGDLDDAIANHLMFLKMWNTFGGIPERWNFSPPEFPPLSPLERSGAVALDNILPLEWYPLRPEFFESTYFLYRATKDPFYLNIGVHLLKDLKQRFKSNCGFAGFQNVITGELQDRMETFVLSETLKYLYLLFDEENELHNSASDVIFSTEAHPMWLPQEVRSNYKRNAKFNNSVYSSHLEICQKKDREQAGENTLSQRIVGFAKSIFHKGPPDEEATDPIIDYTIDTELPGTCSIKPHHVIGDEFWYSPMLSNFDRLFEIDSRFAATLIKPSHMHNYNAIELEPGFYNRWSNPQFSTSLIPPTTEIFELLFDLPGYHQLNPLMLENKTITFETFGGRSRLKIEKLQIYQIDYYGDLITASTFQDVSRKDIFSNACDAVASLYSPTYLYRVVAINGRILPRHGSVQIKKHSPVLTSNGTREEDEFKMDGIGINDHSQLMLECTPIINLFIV

[3] = target: T3, Mnl1–FLAG (S. cerevisiae, UniProt P38888 21-796); assay: cryo-EM structure; Mnl1–FLAG–Pdi1 complex at 1 mg/ml, purified from detergent-treated yeast membranes with anti-FLAG beads and by size-exclusion chromatography as a 1:1 complex; 25 mM HEPES pH 7.4, 150 mM NaCl
T3 construct: Mnl1 (Htm1), luminal ER mannosidase of S. cerevisiae; MHD amino acids 29–514, loop 515–650, CTD 651–796; called 'Full-length' against Mnl1ΔC; The end of the FLAG tag is stated for the GAL1 plasmid; also called Htm1; FLAG-tagged Mnl1; not shown: FLAG, C-terminal, kept
T3 sequence (looked up): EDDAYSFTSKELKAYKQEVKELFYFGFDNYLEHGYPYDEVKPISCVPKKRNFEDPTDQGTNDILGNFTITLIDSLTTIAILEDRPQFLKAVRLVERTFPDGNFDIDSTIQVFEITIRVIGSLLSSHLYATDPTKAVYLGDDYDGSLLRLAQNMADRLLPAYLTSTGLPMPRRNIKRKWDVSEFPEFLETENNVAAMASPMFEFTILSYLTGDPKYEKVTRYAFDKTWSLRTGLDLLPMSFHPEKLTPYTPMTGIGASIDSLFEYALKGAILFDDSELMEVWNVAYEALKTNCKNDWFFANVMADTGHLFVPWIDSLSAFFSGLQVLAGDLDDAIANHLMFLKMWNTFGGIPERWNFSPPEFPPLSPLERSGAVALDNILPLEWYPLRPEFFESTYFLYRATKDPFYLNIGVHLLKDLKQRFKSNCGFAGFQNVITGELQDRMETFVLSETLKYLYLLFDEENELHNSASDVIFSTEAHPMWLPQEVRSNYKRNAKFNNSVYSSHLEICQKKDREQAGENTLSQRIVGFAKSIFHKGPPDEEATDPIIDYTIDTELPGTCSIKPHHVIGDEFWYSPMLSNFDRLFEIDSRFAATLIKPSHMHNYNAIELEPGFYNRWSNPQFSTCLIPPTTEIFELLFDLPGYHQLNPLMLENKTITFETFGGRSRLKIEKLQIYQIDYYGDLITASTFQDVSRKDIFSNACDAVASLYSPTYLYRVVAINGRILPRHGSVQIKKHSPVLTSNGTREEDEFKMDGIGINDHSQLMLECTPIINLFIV

B1: Pdi1 (protein disulfide isomerase) (enzyme, S. cerevisiae, UniProt P17967 29-522, looked up)
chain: PEDSAVVKLATDSFNEYIQSHDLVLAEFFAPWCGHCKNMAPEYVKAAETLVEKNITLAQIDCTENQDLCMEHNIPGFPSLKIFKNSDVNNSIDYEGPRTAEAIVQFMIKQSQPAVAVVADLPAYLANETFVTPVIVQSGKIDADFNATFYSMANKHFNDYDFVSAENADDDFKLSIYLPSAMDEPVVYNGKKADIADADVFEKWLQVEALPYFGEIDGSVFAQYVESGLPLGYLFYNDEEELEEYKPLFTELAKKNRGLMNFVSIDARKFGRHAGNLNMKEQFPLFAIHDMTEDLKYGLPQLSEEAFDELSDKIVLESKAIESLVKDFLKGDASPIVKSQEIFENQDSSVFQLVGKNHDEIVNDPKKDVLVLYYAPWCGHCKRLAPTYQELADTYANATSDVLIAKLDHTENDVRGVVIEGYPTIVLYPGGKKSESVVYQGSRSLDSLFDFIKENGHFDVDGKALYEEAQEKAAEEADADAELADEEDAIHDEL
notes: Pdi1, protein disulfide isomerase of S. cerevisiae, untagged; Trx domains a, b, b′ and a′; amino acids 24–500 could be modelled; source: S. cerevisiae, overexpressed together with Mnl1–FLAG (GAL1 promoter), purified as a complex
[1]
  binding result: binds
[2]
  binding result: binds
[3]
  stoichiometry N: 1

Reference: PMC12170172, “Initiation of ERAD by the bifunctional complex of Mnl1/Htm1 mannosidase and protein disulfide isomerase” (Nature Structural & Molecular Biology, 2025)
